Measured values as given in publication PMC3155514.

Molecular target: T1, HsRAD51(H294V) H294V (Homo sapiens) (UniProt Q06609)
T1 sequence: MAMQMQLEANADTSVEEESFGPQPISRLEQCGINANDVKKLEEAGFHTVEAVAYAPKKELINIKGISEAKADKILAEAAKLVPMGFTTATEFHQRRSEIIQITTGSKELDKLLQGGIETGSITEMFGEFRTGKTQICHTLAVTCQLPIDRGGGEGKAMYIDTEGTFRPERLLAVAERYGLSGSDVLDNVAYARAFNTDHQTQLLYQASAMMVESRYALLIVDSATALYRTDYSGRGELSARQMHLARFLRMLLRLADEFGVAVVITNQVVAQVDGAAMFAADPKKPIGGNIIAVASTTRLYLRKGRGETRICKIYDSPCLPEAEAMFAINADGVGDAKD
Assay: SPR
Settings: SPR (Biacore 3000): 20 mM HEPES pH 7.5, 10% glycerol, 1 mM DTT, 1 mM MgCl2, 0.005% P-20, 2.5 mM indicated nucleotide, 150 mM KCl when indicated (text: salt …)

TCGAGAGGGTAAACCACAATTATTGATATAAAATAGTTTTGGGTAGGCGA (double strand) [50 bp dsDNA]
Kd: 472 nM
